Assay results published in patent publication US20250230207A1, “COMPOSITION” (Worg Pharmaceuticals (Zhejiang) Co., Ltd., priority 2017, published 2025).

B1: gpMBP: guinea pig myelin basic protein (SEQ ID NO: 6), immunising antigen (protein, listed as Cavia porcellus)
chain: ASQKRPSQRHGSKYLATASTMDHARHGFLPRHRDTGILDSIGRFFGSDRAAPKRGSGKDSHHAARTTHYGSLPQKSQRSQDENPVVHFFKNIVTPRTPPPSQGKGRGLSLSRFSWGAEGQKPGFGYGGRADYKSKGFKGAHDAQGTLSKIFKLGGRDSRSGSPMARR
B2: huMBP: human myelin basic protein, immunising antigen (protein, UniProt P02686 1-304, looked up)
Myelin basic protein: MGNHAGKRELNAEKASTNSETNRGESEKKRNLGELSRTTSEDNEVFGEADANQNNGTSSQDTAVTDSKRTADPKNAWQDAHPADPGSRPHLIRLFSRDAPGREDNTFKDRPSESDELQTIQEDSAATSESLDVMASQKRPSQRHGSKYLATASTMDHARHGFLPRHRDTGILDSIGRFFGGDRGAPKRGSGKDSHHPARTAHYGSLPQKSHGRTQDENPVVHFFKNIVTPRTPPPSQGKGRGLSLSRFSWGAEGQRPGFGYGGRASDYKSAHKGFKGVDAQGTLSKIFKLGGRDSRSGSPMARR

Experiments:
Format in all cases: in vivo, Lewis rat
[1] = tested on: experimental autoimmune uveitis (EAU) in Lewis rats; assay: Example 1: development of uveitis (EAU) after immunisation with IRBP, gpMBP and/or huMBP; details: for Maximum Score of EAU: TEFI retinal score, maximum possible 6; for clinical signs of anterior uveitis: visual score 0-3, compared to the gpMBP-administered group, data until Day 21
Method: This study aimed at studying the effect, in Lewis rats, of immunisations with guinea pig myelin basic protein (gpMBP), human myelin basic protein (huMBP) and/or interphotoreceptor retinoid-binding protein with regard to development of encephalomyelitis (EAE) and/or uveitis (EAU).
(§1) Adult female Lewis rats were randomly allocated to experimental groups and allowed to acclimatise for one week. On Day 0, animals were administered by subcutaneous injection with 200 microliters of an emulsion containing 20 micrograms of IRBP1177-1191 (Cambridge Bioscience, UK) and/or 100 micrograms of human (Fitzgerald Industries International, MA, US) or guinea pig Myelin Basic Protein (gpMBP) in incomplete Freund's adjuvant (Sigma, UK) supplemented with 5 mg/ml Mycobacterium Tuberculosis H37Ra ([…]) (Becton Dickenson, UK). From Day 0 until the end of the experiment, animals were weighed daily. From Day 0 until the end of the experiment, animals were scored daily for clinical signs of experimental autoimmune encephalomyelitis to include limpness, paresis and/or paralysis of the tail, hind limbs and/or front limbs. From Day 0 until the end of the experiment, animals were scored twice weekly for clinical signs of uveitis. On Day 21 (Groups 1, 2 and 3) or Day 28 (Groups 4 and 5), animals were culled and the following samples were dissected out and stored in tissue fixative for optional histopathology analysis: brain, spinal cord, right and left eyes.
From Day 0 until the end of the experiment, animals were visually scored twice per week for clinical signs of anterior uveitis using the following scoring system. The maximum possible score was 3. Data were graphed (Mean±SEM).
From Day 0 until the end of the experiment, animals were scored twice per week for clinical signs of intermediate and posterior uveitis. Retinal images were captured using TEFI in non-anaesthetised but restrained animals following pupil dilatation using Tropicamide 1% then Phenylephrine hydrochloride 2.5%. Retinal images were scored using the following system. The maximum possible score was 6. Data were graphed (Mean±SEM).
Animals with an average score for both eyes greater than 0.5 on at least two consecutive TEFI sessions (see FIG. 2) or a score greater than 1.0 on any occasion were considered to have developed clinical signs of posterior uveitis. Based on this criterion, the incidence of EAU was:
Due to the lack of pigmentation in the retina of Lewis rats, the scoring system below was used. This is due to the inability to identify areas of infiltration causing haziness and cuffing on a pale background. Inflammation of the optic disc could not be clearly identified and was not therefore scored, also, no structural damage was observed. Infiltration of retinal vessels could be identified by engorged appearance on a scale of 0-3, mild to severe. Retinal inflammation was identified by the appearance of small to large areas of redness caused by increase in vascularisation also on a scale of 0-3, giving a total possible score of 6.
Clinical signs of anterior uveitis were also observed during the experiment. Data collected until Day 21 were analysed by two-way ANOVA followed by Dunnett's post-test for multiple comparisons between experimental groups.

[2] = Example 1: bodyweights and non-specific clinical observations; details: Day 11 to Day 21, compared to the IRBP-administered group
Description: Adult female Lewis rats were randomly allocated to experimental groups and allowed to acclimatise for one week. […] From Day 0 until the end of the experiment, animals were weighed daily. From Day 0 until the end of the experiment, animals were scored daily for clinical signs of experimental autoimmune encephalomyelitis to include limpness, paresis and/or paralysis of the tail, hind limbs and/or front limbs. From Day 0 until the end of the experiment, animals were scored twice weekly for clinical signs of uveitis. On Day 21 (Groups 1, 2 and 3) or Day 28 (Groups 4 and 5), animals were culled and the following samples were dissected out and stored in tissue fixative for optional histopathology analysis: brain, spinal cord, right and left eyes.
From Day 0 until the end of the experiment, animals were checked daily for non-specific clinical signs to include abnormal posture (hunched), abnormal coat condition (piloerection) and abnormal activity levels (reduced or increased activity).
From Day 0 until the end of the experiment, animals were weighed daily.

[3] = tested on: experimental autoimmune encephalomyelitis (EAE) in Lewis rats; assay: Example 1: development of experimental autoimmune encephalomyelitis (EAE) after immunisation; details: paralytic symptom scoring 0-6
Method: as §1
Guinea pig MBP may induce Experimental autoimmune encephalomyelitis (EAE) in Lewis rats, a model for multiple sclerosis (MS). In this experiment, severe EAE was developed in Lewis rats immunised with gpMBP alone (incidence 8/8 rats; mean max score 3.5) or in combination with IRBP peptide (incidence 8/8 rats; mean max score 3.9) using the scoring system for paralytic symptoms: 0) no abnormality, (0.5) partial tail limpness, (1) complete tail limpness, (2) one hind limb paresis, (2.5) two hind limbs paresis, (3) one hind limb paralysis, (4) two hind limb paralysis, (5) incontinence and (6) moribund.

[4] = Lewis rats immunised SC Day 0 in CFA

Molecule	Onset (Day) of EAU [1, 4]	Incidence of EAU (clinical signs of posterior uveitis) ([1]; Lewis rats immunised SC Day 0 in CFA, TEFI score criterion, affected/total in brackets)	Maximum Score of EAU [1]	clinical signs of anterior uveitis [1]	bodyweight loss [2]	EAE incidence [3]	EAE mean max score [3]	severity of the clinical signs of EAU compared to the other immunised groups ([1]; vs IRBP (p<0.001), IRBP and gpMBP (p<0.01), IRBP and huMBP (p<0.01), huMBP (p<0.05))
ADGSSWEGVGVVPDV [IRBP, reference compound]	10.5 ± 0.5 days	100% (8/8)	5.6 ± 0.3	observed from Day 11	no significant bodyweight loss	2/8	1.0	–
B1	11.5 ± 0.5 days	–	1.1 ± 0.2	–	significant bodyweight loss	8/8	3.5	significantly lower
B2	10.2 ± 0.7 days	–	4.1 ± 0.5	observed on Day 14 (p<0.0001) and Day 18 (p<0.01)	no significant bodyweight loss	3/14	1.0	–
